* marks the point of attachment. Biotin = O=C1N[C@H]2[C@H](CS[C@H]2CCCCC(=O)*)N1
How the values were obtained:
[1] = molecular target: T1, human myostatin pro-peptide dimer (human, UniProt O14793 25-266); assay: ELISA, plate-coated antigen
T1 sequence: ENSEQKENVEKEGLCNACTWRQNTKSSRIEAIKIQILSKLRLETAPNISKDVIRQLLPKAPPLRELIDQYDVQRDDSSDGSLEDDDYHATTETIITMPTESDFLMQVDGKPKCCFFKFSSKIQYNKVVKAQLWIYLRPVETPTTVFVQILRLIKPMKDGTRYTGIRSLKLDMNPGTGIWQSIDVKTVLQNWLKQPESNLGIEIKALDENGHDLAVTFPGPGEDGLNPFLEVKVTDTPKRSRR
Method: The myostatin antigens were coated onto wells of an EIA/RIA plate (Costar) at 100 ng/well at 4° C. overnight in PBS, prior to blocking (PBS, 3% BSA) for 30 minutes at room temperature. Plates were washed (PBS, 1% BSA and 0.1% Tween20), prior to the addition of a dilution series of 10B3 in wash buffer and incubation for 2 hours at room temperature. […] A final wash step preceded addition of TMB substrate and colorimetric change which was stopped with Sulphuric acid and plates read at 450 nm.

[2] = molecular target: T2, artificial myostatin linear peptide 29 (SMILES …); assay: SRU BIND reader, peptides captured on streptavidin biosensor plate
T2 construct: also called Peptide No 29
T2 peptide: Biotin-SGSGHTHLVHQANPRGSA-NH2
Method: (§1) Work was carried out on an SRU BIND reader (SRU Biosystems). A streptavidin biosensor plate was washed, a baseline reading taken, and biotinylated peptides captured onto the streptavidin coated biosensor plate. The plate was washed again, and a new baseline reading taken, antibody was then added and binding monitored.

[3] = molecular target: T3, artificial myostatin linear peptide 23 (SMILES …); assay: as above
T3 construct: also called Peptide No 23
T3 peptide: Biotin-SGSGGECEFVFLQKYPHT-NH2
Method: as §1

[4] = molecular target: T4, artificial myostatin linear peptide 41 (SMILES …); assay: as above
T4 construct: also called Peptide No 41
T4 peptide: Biotin-SGSGPINMLYFNGKEQII-NH2
Method: as §1

[5] = molecular target: T5, artificial myostatin linear peptide 7 (cysteine pairing not given here); assay: as above
T5 construct: also called Peptide No 7
T5 peptide: Biotin-SGSGSRCCRYPLTVDFEA-NH2
Method: as §1

[6] = molecular target: T6, artificial myostatin linear peptide 11 (SMILES …); assay: as above
T6 construct: also called Peptide No 11
T6 peptide: Biotin-SGSGTVDFEAFGWDWIIA-NH2
Method: as §1

[7] = molecular target: T7, artificial myostatin linear peptide 47 (SMILES …); assay: as above
T7 construct: also called Peptide No 47
T7 peptide: Biotin-SGSGIIYGKIPAMVVDRC-NH2
Method: as §1

[8] = molecular target: T8, artificial myostatin linear peptide 35 (cysteine pairing not given here); assay: as above
T8 construct: also called Peptide No 35
T8 peptide: Biotin-SGSGSAGPCCTPTKMSPI-NH2
Method: as §1

[9] = molecular target: T9, mature myostatin (recombinant, dimeric) (mouse polyprotein used for in-house …, UniProt O08689 268-376); assay: cell-based or functional assay
T9 sequence: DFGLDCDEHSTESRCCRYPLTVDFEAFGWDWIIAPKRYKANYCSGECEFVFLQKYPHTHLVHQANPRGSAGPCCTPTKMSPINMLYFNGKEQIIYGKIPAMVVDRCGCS

[10] = molecular target: T9, mature myostatin (recombinant, dimeric); assay: ActRIIb receptor binding assay (Example 2.5), mean IC50
Method: (§2) Recombinant soluble ActRIIb (R&D Systems 339-RBB) was coated in wells of an ELISA plate at 1 μg/ml in carbonate buffer overnight at 4° C. Plates were blocked (see Block solution above at 2.3) and washed following standard ELISA protocols. In parallel, 2 nM biotinylated myostatin (in-house, as described in 1.1, biotinylated material) was pre-incubated with an antibody dilution series consisting of 10B3, 10B3C, and a negative control (IgG1 isotype control) for 2 hours at 37° C. The biotinylated myostatin:antibody reactions were then added to the ActRIIb coated plate for 1 hour at 37° C. Standard wash procedures were followed prior to addition of 1:1000 diluted streptavidin-HRP conjugate (Dako P0397) and a further 37° C. incubation for 1 hour. Plates were again washed and assayed at absorbance 490 nm following OPD substrate (Sigma) and acid stop solution treatment Inhibition curves and IC50 values for the inhibition of myostatin activity are shown in FIG. 5 and Table 8 respectively.
H2L2 C91S_G55S F100G_Y, the developability enhanced molecule with the highest apparent potency in the A204 assay was Fc-disabled (by making the following substitutions, using EU numbering system: Leu 235 Ala; and Gly 237 Ala) as exemplified in SEQ ID NO: 99.

[11] = molecular target: T9, mature myostatin (recombinant, dimeric); assay: BIAcore T100, antibody captured on anti-mouse IgG (C1 chip), myostatin analyte, all curves 1:1 model
Method: The affinity of 10B3 mouse parental and 10B3C for recombinant myostatin was assessed by BIAcore™ (surface plasmon resonance) analysis. Analysis was carried out by the use of a capture surface: anti-mouse IgG was coupled to a C1 chip by primary amine coupling for 10B3 mouse parental; and a protein A surface was created on a C1 chip by primary amine coupling for 10B3 chimera.
After capture, recombinant myostatin was passed over the surface at 64 nM, 16 nM, 4 nM, 1 nM, 0.25 nM and 0.0625 nM, with a buffer injection (i.e. 0 nM) used for double referencing. There was a regeneration step between each analyte injection, after which the new antibody capture event occurred before the next injection of myostatin. The data was analysed using both the 1:1 model and the Bivalent model inherent to the T100 machines analysis software (see Table 6). Both capture surfaces could be regenerated using 100 mM phosphoric acid, the work was carried out using HBS-EP as the running buffer and using 25° C. as the analysis temperature.

[12] = molecular target: T9, mature myostatin (recombinant, dimeric); assay: ELISA: inhibition of 2 nM biotinylated myostatin binding to plate-coated ActRIIb, mean IC50 (= 0.88 nM by paragraph 327)
Method: as §2

binding result [1]: no binding
binding result [2]: no binding
binding result [3]: no binding
binding result [4]: no binding
binding result [5]: no binding
binding result [6]: no binding
binding result [7]: no binding
binding result [8]: no binding
Mean IC50, myostatin responsive reporter gene assay (A204 cells, luciferase) [9]: 10 nM
IC50 [10]: 0.161 nM
Kd [11]: 1 nM
IC50 [12]: 0.132 µg/mL
B1: mouse monoclonal antibody 10B3 (antibody, V domains shown)
VH: EVQLQQSGPELVKPGASVKISCKASGYSFTGYFMHWVKQSHGNILDWIGNIYPYNGVSNYNQRFKAKATLTVDKSSSTAYMELRSLTSEDSAVYYCARRYYYGTGPADWYFDVWGTGTTVTVSS
VL: DIKMTQSPSSMYASLRERVTITCKASQDINSYLSWFQQKPGKSPKTLIYRANRLVDGVPSRFSGSGSGQDYSLTISSLEYEDMGIYYCLQCDEFPLTFGAGTKLELK
notes: Mouse IgG2a/kappa from hybridoma; also called 10B3 mouse parental; 10B3 parental

— patent publication US20110256132A1 (published 2011)
